Positions count from the first letter of the chain named. Numbers in names are those of the source.
Target: Bacillus subtilis GapA (glyceraldehyde-3-phosphate dehydrogenase), His-tagged (Bacillus subtilis) (UniProt P09124)
UniProt P09124, sequence (P09124 whole entry): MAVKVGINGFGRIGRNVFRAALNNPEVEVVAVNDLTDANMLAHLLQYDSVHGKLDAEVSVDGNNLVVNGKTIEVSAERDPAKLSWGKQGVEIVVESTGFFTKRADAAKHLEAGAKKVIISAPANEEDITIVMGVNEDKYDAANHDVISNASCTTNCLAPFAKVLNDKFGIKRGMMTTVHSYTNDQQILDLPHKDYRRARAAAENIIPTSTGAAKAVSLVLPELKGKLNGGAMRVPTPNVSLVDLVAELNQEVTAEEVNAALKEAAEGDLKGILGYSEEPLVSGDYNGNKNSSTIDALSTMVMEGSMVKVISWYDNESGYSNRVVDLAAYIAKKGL

B1: Bacillus subtilis HPr-G54D, His-tagged (natural protein)
chain: MAQKTFKVTADSGIHARPATVLVQTASKYDADVNLEYNGKTVNLKSIMGVMSLDIAKGAEITISASGADENDALNALEETMKSEGLGE
- catalytic efficiency kcat/KM of GapA with E4P in the presence of HPr-G54D (GAPDH alone: 1.05): 730 M⁻¹ s⁻¹
- catalytic efficiency kcat/KM of GapA with G3P in the presence of HPr-G54D (GAPDH alone: 219): 68500 M⁻¹ s⁻¹

B2: Bacillus subtilis HPr-S46E, His-tagged (natural protein)
chain: B1 chain with S46E, D54G
- catalytic efficiency kcat/KM of GapA with E4P in the presence of HPr-S46E (GAPDH alone: 1.05): 2600 M⁻¹ s⁻¹
- catalytic efficiency kcat/KM of GapA with G3P in the presence of HPr-S46E (GAPDH alone: 219): 38800 M⁻¹ s⁻¹

B3: Bacillus subtilis HPr-S46E, G54D, His-tagged (natural protein)
chain: B1 chain with S46E
- catalytic efficiency kcat/KM of GapA with E4P in the presence of HPr-G54D, S46E (GAPDH alone: 1.05): 3780 M⁻¹ s⁻¹
- catalytic efficiency kcat/KM of GapA with G3P in the presence of HPr-G54D, S46E (GAPDH alone: 219): 164000 M⁻¹ s⁻¹

B4: Bacillus subtilis histidine-containing phosphocarrier protein (HPr), His-tagged (natural protein)
chain: B1 chain with D54G
- catalytic efficiency kcat/KM of GapA with E4P in the presence of HPr (GAPDH alone: 1.05): 1880 M⁻¹ s⁻¹
- catalytic efficiency kcat/KM of GapA with G3P in the presence of HPr (GAPDH alone: 219): 57400 M⁻¹ s⁻¹
